Test results as given in the supplement of paper PMC11316812.
± gives the standard deviation of the averaged measurements.

Legend:
[1] = tested on: MCF7; assay: percentage of EdU-negative (G0-arrested) nuclei per well, 72 h; higher = more G0 arrest; conditions: reference: sequence is the full UniProt precursor, the tested protein was the secreted form or ectodomain
[2] = tested on: hTERT-HMEC; assay: as above; conditions: reference: sequence is the full UniProt precursor, the tested protein was the secreted form or ectodomain
[3] = protein concentration 0.01325 µM
[4] = protein concentration 0.1325 µM
[5] = protein concentration 0.0155 µM
[6] = protein concentration 0.01025 µM
[7] = protein concentration 0.1025 µM
[8] = protein concentration 0.0225 µM
[9] = protein concentration 0.00975 µM
[10] = protein concentration 0.0975 µM
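Also: secreted proteins added to cultured cells, EdU pulse at the end, nuclei found by Hoechst imaging, EdU status from nuclear versus surrounding ring intensity ratio, PBS as neutral control.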

MTTWSLRRRPARTLGLLLLVVLGFLVLRRLDWSTLVPLRLRHRQLGLQAKGWNFMLEDSTFWIFGGSIHYFRVPREYWRDRLLKMKACGLNTLTTYVPWNLHEPERGKFDFSGNLDLEAFVLMAAEIGLWVILRPGPYICSEMDLGGLPSWLLQDPGMRLRTTYKGFTEAVDLYFDHLMSRVVPLQYKRGGPIIAVQVENEYGSYNKDPAYMPYVKKALEDRGIVELLLTSDNKDGLSKGIVQGVLATINLQSTHELQLLTTFLFNVQGTQPKMVMEYWTGWFDSWGGPHNILDSSEVLKTVSAIVDAGSSINLYMFHGGTNFGFMNGAMHFHDYKSDVTSYDYDAVLTEAGDYTAKYMKLRDFFGSISGIPLPPPPDLLPKMPYEPLTPVLYLSLWDALKYLGEPIKSEKPINMENLPVNGGNGQSFGYILYETSITSSGILSGHVHDRGQVFVNTVSIGFLDYKTTKIAVPLIQGYTVLRILVENRGRVNYGENIDDQRKGLIGNLYLNDSPLKNFRIYSLDMKKSFFQRFGLDKWSSLPETPTLPAFFLGSLSISSTPCDTFLKLEGWEKGVVFINGQNLGRYWNIGPQKTLYLPGPWLSSGINQVIVFEETMAGPALQFTETPHLGRNQYIK [Q8IW92]
percentage of EdU-negative [1, 3]: 23.6 ± 0.28%
percentage of EdU-negative [1, 4]: 27.7 ± 0.33%
percentage of EdU-negative [2, 3]: 4.88 ± 0.97%
percentage of EdU-negative [2, 4]: 9.63 ± 0.41%

MTVARPSVPAALPLLGELPRLLLLVLLCLPAVWGDCGLPPDVPNAQPALEGRTSFPEDTVITYKCEESFVKIPGEKDSVICLKGSQWSDIEEFCNRSCEVPTRLNSASLKQPYITQNYFPVGTVVEYECRPGYRREPSLSPKLTCLQNLKWSTAVEFCKKKSCPNPGEIRNGQIDVPGGILFGATISFSCNTGYKLFGSTSSFCLISGSSVQWSDPLPECREIYCPAPPQIDNGIIQGERDHYGYRQSVTYACNKGFTMIGEHSIYCTVNNDEGEWSGPPPECRGKSLTSKVPPTVQKPTTVNVPTTEVSPTSQKTTTKTTTPNAQATRSTPVSRTTKHFHETTPNKGSGTTSGTTRLLSGHTCFTLTGLLGTLVTMGLLT
percentage of EdU-negative [1, 5]: 26.2 ± 1%
percentage of EdU-negative ([1]; protein concentration 0.155 µM): 26.1 ± 1.8%
percentage of EdU-negative [2, 5]: 4.51 ± 0.44%
percentage of EdU-negative ([2]; protein concentration 0.155 µM): 7.07 ± 0.42%

MTVFLSFAFLAAILTHIGCSNQRRSPENSGRRYNRIQHGQCAYTFILPEHDGNCRESTTDQYNTNALQRDAPHVEPDFSSQKLQHLEHVMENYTQWLQKLENYIVENMKSEMAQIQQNAVQNHTATMLEIGTSLLSQTAEQTRKLTDVETQVLNQTSRLEIQLLENSLSTYKLEKQLLQQTNEILKIHEKNSLLEHKILEMEGKHKEELDTLKEEKENLQGLVTRQTYIIQELEKQLNRATTNNSVLQKQQLELMDTVHNLVNLCTKEGVLLKGGKREEEKPFRDCADVYQAGFNKSGIYTIYINNMPEPKKVFCNMDVNGGGWTVIQHREDGSLDFQRGWKEYKMGFGNPSGEYWLGNEFIFAITSQRQYMLRIELMDWEGNRAYSQYDRFHIGNEKQNYRLYLKGHTGTAGKQSSLILHGADFSTKDADNDNCMCKCALMLTGGWWFDACGPSNLNGMFYTAGQNHGKLNGIKWHYFKGPSYSLRSTTMMIRPLDF
percentage of EdU-negative [1, 6]: 25.2 ± 0.66%
percentage of EdU-negative [1, 7]: 26.4 ± 0.81%
percentage of EdU-negative [2, 6]: 4.915 ± 0.017%
percentage of EdU-negative [2, 7]: 8.6 ± 2%

MTVLAPAWSPTTYLLLLLLLSSGLSGTQDCSFQHSPISSDFAVKIRELSDYLLQDYPVTVASNLQDEELCGGLWRLVLAQRWMERLKTVAGSKMQGLLERVNTEIHFVTKCAFQPPPSCLRFVQTNISRLLQETSEQLVALKPWITRQNFSRCLELQCQPDSSTLPPPWSPRPLEATAPTAPQPPLLLLLLLPVGLLLLAAAWCLHWQRTRRRTPRPGEQVPPVPSPQDLLLVEH
percentage of EdU-negative [1, 8]: 25 ± 0.85%
percentage of EdU-negative ([1]; protein concentration 0.225 µM): 25.7 ± 0.9%
percentage of EdU-negative [2, 8]: 5 ± 0.57%
percentage of EdU-negative ([2]; protein concentration 0.225 µM): 5.47 ± 0.61%

MVAALLGGGGEARGGTVPGAWLCLMALLQLLGSAPRGSGLAHGRRLICWQALLQCQGEPECSYAYNQYAEACAPVLAQHGGGDAPGAAAAAFPASAASFSSRWRCPSHCISALIQLNHTRRGPALEDCDCAQDENCKSTKRAIEPCLPRTSGGGAGGPGAGGVMGCTEARRRCDRDSRCNLALSRYLTYCGKVFNGLRCTDECRTVIEDMLAMPKAALLNDCVCDGLERPICESVKENMARLCFGAELGNGPGSSGSDGGLDDYYDEDYDDEQRTGGAGGEQPLDDDDGVPHPPRPGSGAAASGGRGDLPYGPGRRSSGGGGRLAPRGAWTPLASILLLLLGPLF
percentage of EdU-negative [1, 8]: 24.6 ± 0.7%
percentage of EdU-negative ([1]; protein concentration 0.225 µM): 26.9 ± 0.34%
percentage of EdU-negative [2, 8]: 4.96 ± 0.62%
percentage of EdU-negative ([2]; protein concentration 0.225 µM): 5.68 ± 0.97%

MVAATVAAAWLLLWAAACAQQEQDFYDFKAVNIRGKLVSLEKYRGSVSLVVNVASECGFTDQHYRALQQLQRDLGPHHFNVLAFPCNQFGQQEPDSNKEIESFARRTYSVSFPMFSKIAVTGTGAHPAFKYLAQTSGKEPTWNFWKYLVAPDGKVVGAWDPTVSVEEVRPQITALVRKLILLKREDL [Q96SL4]
percentage of EdU-negative [1, 9]: 25.2 ± 2%
percentage of EdU-negative [1, 10]: 27.1 ± 1.4%
percentage of EdU-negative [2, 9]: 4.59 ± 0.052%
percentage of EdU-negative [2, 10]: 5.66 ± 0.28%
